{"source": "the supplement of paper PMC9112550", "about": "“Optimization of the antimicrobial peptide Bac7 by deep mutational scanning” (BMC Biology, 2022);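 also: peptides expressed intracellularly from a pBAD plasmid library in pooled LB shake-flask culture, induced with 0.3% L-arabinose, DNA abundance read by NGS, three biological replicates, DESeq2 with apeglm shrinkage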"}
{"system": "Escherichia coli TOP10", "test": "shrunken log2 fold change of peptide-encoding DNA abundance (4.5 h post-induction vs induction); higher = less antimicrobial activity (less host growth inhibition)", "conditions": "time post-induction: 4.5 h; library: site-saturation at positions 5, 18, 19, 20"}
{"sequence": "RRIRERPPRLPRPRPRPHNKPRP", "shrunken log2 fold change": -0.787}
{"sequence": "RRIRFRPPRLPRPRPRPECYPRP", "shrunken log2 fold change": -0.155}
{"sequence": "RRIRYRPPRLPRPRPRPCTAPRP", "shrunken log2 fold change": -1.4}
{"sequence": "RRIRRRPPRLPRPRPRPRDDPRP", "shrunken log2 fold change": 0.14}
{"sequence": "RRIRDRPPRLPRPRPRPASTPRP", "shrunken log2 fold change": 0.397}
{"sequence": "RRIRKRPPRLPRPRPRPHQHPRP", "shrunken log2 fold change": 0.213}
{"sequence": "RRIRIRPPRLPRPRPRPDRGPRP", "shrunken log2 fold change": -0.0332}
{"sequence": "RRIRQRPPRLPRPRPRPNTLPRP", "shrunken log2 fold change": 0.013}
{"sequence": "RRIRLRPPRLPRPRPRPPWGPRP", "shrunken log2 fold change": 0.203}
{"sequence": "RRIRERPPRLPRPRPRPCMCPRP", "shrunken log2 fold change": -1.03}
{"sequence": "RRIRGRPPRLPRPRPRPSFNPRP", "shrunken log2 fold change": 0.131}
{"sequence": "RRIRHRPPRLPRPRPRPQMEPRP", "shrunken log2 fold change": -0.00192}
{"sequence": "RRIRLRPPRLPRPRPRPQDNPRP", "shrunken log2 fold change": -0.428}
{"sequence": "RRIRFRPPRLPRPRPRPACHPRP", "shrunken log2 fold change": -0.0466}
{"sequence": "RRIRQRPPRLPRPRPRPQICPRP", "shrunken log2 fold change": -0.229}
{"sequence": "RRIRARPPRLPRPRPRPAIHPRP", "shrunken log2 fold change": -0.223}
{"sequence": "RRIRCRPPRLPRPRPRPKCPPRP", "shrunken log2 fold change": 0.0246}
{"sequence": "RRIRYRPPRLPRPRPRPVNNPRP", "shrunken log2 fold change": -1.68}
{"sequence": "RRIRVRPPRLPRPRPRPPQMPRP", "shrunken log2 fold change": 0.236}
{"sequence": "RRIRKRPPRLPRPRPRPNYNPRP", "shrunken log2 fold change": 0.0883}
{"sequence": "RRIRERPPRLPRPRPRPDIDPRP", "shrunken log2 fold change": -0.191}
{"sequence": "RRIRERPPRLPRPRPRPPWRPRP", "shrunken log2 fold change": 0.424}
{"sequence": "RRIRCRPPRLPRPRPRPYSDPRP", "shrunken log2 fold change": -0.0426}
{"sequence": "RRIRQRPPRLPRPRPRPEVWPRP", "shrunken log2 fold change": 0.552}
{"sequence": "RRIRKRPPRLPRPRPRPNPHPRP", "shrunken log2 fold change": 0.188}
{"sequence": "RRIRFRPPRLPRPRPRPGFMPRP", "shrunken log2 fold change": -0.242}
{"sequence": "RRIRKRPPRLPRPRPRPGGLPRP", "shrunken log2 fold change": 0.0184}
{"sequence": "RRIRARPPRLPRPRPRPQFHPRP", "shrunken log2 fold change": -0.116}
{"sequence": "RRIRSRPPRLPRPRPRPYIPPRP", "shrunken log2 fold change": -1.28}
{"sequence": "RRIRVRPPRLPRPRPRPCLHPRP", "shrunken log2 fold change": -0.947}
{"sequence": "RRIRERPPRLPRPRPRPSQRPRP", "shrunken log2 fold change": -0.0321}
{"sequence": "RRIRFRPPRLPRPRPRPQSRPRP", "shrunken log2 fold change": 0.0257}
{"sequence": "RRIRARPPRLPRPRPRPYYFPRP", "shrunken log2 fold change": -0.701}
{"sequence": "RRIRIRPPRLPRPRPRPVPCPRP", "shrunken log2 fold change": -0.00376}
{"sequence": "RRIRERPPRLPRPRPRPDIGPRP", "shrunken log2 fold change": -0.0541}
{"sequence": "RRIRARPPRLPRPRPRPVHFPRP", "shrunken log2 fold change": 0.396}
{"sequence": "RRIRCRPPRLPRPRPRPLTSPRP", "shrunken log2 fold change": 0.208}
{"sequence": "RRIRCRPPRLPRPRPRPCMCPRP", "shrunken log2 fold change": -0.668}
{"sequence": "RRIRQRPPRLPRPRPRPADDPRP", "shrunken log2 fold change": -0.01}
{"sequence": "RRIRTRPPRLPRPRPRPNRNPRP", "shrunken log2 fold change": -0.544}
{"sequence": "RRIRNRPPRLPRPRPRPCLCPRP", "shrunken log2 fold change": -0.275}
{"sequence": "RRIRIRPPRLPRPRPRPSHHPRP", "shrunken log2 fold change": -0.941}
{"sequence": "RRIRPRPPRLPRPRPRPWCHPRP", "shrunken log2 fold change": -0.563}
{"sequence": "RRIRDRPPRLPRPRPRPDLLPRP", "shrunken log2 fold change": 0.106}
{"sequence": "RRIRFRPPRLPRPRPRPSYWPRP", "shrunken log2 fold change": -0.519}
{"sequence": "RRIRERPPRLPRPRPRPQVHPRP", "shrunken log2 fold change": -0.445}
{"sequence": "RRIRSRPPRLPRPRPRPNTKPRP", "shrunken log2 fold change": -0.259}
{"sequence": "RRIRVRPPRLPRPRPRPGQTPRP", "shrunken log2 fold change": -0.00176}
{"sequence": "RRIRFRPPRLPRPRPRPLRFPRP", "shrunken log2 fold change": 0.186}
{"sequence": "RRIRDRPPRLPRPRPRPWMSPRP", "shrunken log2 fold change": -0.376}
{"sequence": "RRIRVRPPRLPRPRPRPNWHPRP", "shrunken log2 fold change": -0.0428}
{"sequence": "RRIRSRPPRLPRPRPRPVLFPRP", "shrunken log2 fold change": -0.0544}
{"sequence": "RRIRARPPRLPRPRPRPVDKPRP", "shrunken log2 fold change": 0.363}
{"sequence": "RRIRERPPRLPRPRPRPFQVPRP", "shrunken log2 fold change": -0.212}
{"sequence": "RRIRERPPRLPRPRPRPNCRPRP", "shrunken log2 fold change": -0.238}
{"sequence": "RRIRQRPPRLPRPRPRPRRCPRP", "shrunken log2 fold change": 0.271}
{"sequence": "RRIRSRPPRLPRPRPRPMGNPRP", "shrunken log2 fold change": 0.0909}
{"sequence": "RRIRVRPPRLPRPRPRPKQWPRP", "shrunken log2 fold change": 0.326}
{"sequence": "RRIRCRPPRLPRPRPRPHNNPRP", "shrunken log2 fold change": -0.991}
{"sequence": "RRIRNRPPRLPRPRPRPHLRPRP", "shrunken log2 fold change": -0.447}
{"sequence": "RRIRYRPPRLPRPRPRPNPMPRP", "shrunken log2 fold change": -0.788}
{"sequence": "RRIRPRPPRLPRPRPRPNDQPRP", "shrunken log2 fold change": 1.93}
{"sequence": "RRIRMRPPRLPRPRPRPHFGPRP", "shrunken log2 fold change": 0.0712}
{"sequence": "RRIRARPPRLPRPRPRPDEVPRP", "shrunken log2 fold change": 0.446}
{"sequence": "RRIRRRPPRLPRPRPRPDTTPRP", "shrunken log2 fold change": 0.192}
{"sequence": "RRIRNRPPRLPRPRPRPQPFPRP", "shrunken log2 fold change": -0.0278}
{"sequence": "RRIRGRPPRLPRPRPRPIRRPRP", "shrunken log2 fold change": 0.346}
{"sequence": "RRIRSRPPRLPRPRPRPERCPRP", "shrunken log2 fold change": 0.0123}
{"sequence": "RRIRLRPPRLPRPRPRPPAYPRP", "shrunken log2 fold change": 0.0545}
{"sequence": "RRIRPRPPRLPRPRPRPWIAPRP", "shrunken log2 fold change": 0.0544}
{"sequence": "RRIRCRPPRLPRPRPRPIMWPRP", "shrunken log2 fold change": -0.123}
{"sequence": "RRIRRRPPRLPRPRPRPSRFPRP", "shrunken log2 fold change": 0.536}
{"sequence": "RRIRSRPPRLPRPRPRPSTVPRP", "shrunken log2 fold change": -0.353}
{"sequence": "RRIRFRPPRLPRPRPRPWPPPRP", "shrunken log2 fold change": 1.11}
{"sequence": "RRIRFRPPRLPRPRPRPFSVPRP", "shrunken log2 fold change": -1.57}
